Assay results: patent US20250270301A1 (GEN2 NEUROSCIENCE, published 2025)
Changes are numbered by the printed parent chain. Read-outs that look alike come from different tables or passages of the source.

B1: #44_VH4VK4_H04/pVL (antibody, V domains shown)
VH: QVQLQESGPGLVKPSETLSLTCTVSGIDLSSYAMAWVRQAPGKGLEWIGCIDRRGGTFYASWVKGRFTISKDTSKTTVDLQMTSLTAEDTATYFCARDAGSFHPWGQGTLVTVSS
VL: DIQMTQSPSSLSASVGDRVTITCQASQSVYDNYLAWYQQKPGQPPKLLIHAASNLASGVPSRFSGSGSGTEFTLTISSLQPDDFATYYCLGEFSCTTTDCNVFGGGTKVEIK
notes: also called VH04/pVL; Clone VH4_H04
B2: #44_VH4VK4_H06/pVL (antibody, V domains shown)
VH: B1 VH with C50V, R53A, R54A, G56H, A99S, S101T, H103D
VL: B1 VL
notes: also called Clone VH4_H06; #44_VH4_H06
B3: #44 VH6VK1 humanised hIgG1 (antibody, V domains shown)
VH: QVQLQESGPGLVKPSETLSLTCTVSGIDLSSYAMSWVRQAPGKGLEWVSCIDRRGGTFYASWVKGRFTISRDNSKNTLDLQMTSLTAEDTATYYCARDSGAFDPWGQGTLVTVSS
VL: B1 VL with D1Q, Q3V, G58R, S64K, P81C, K108E, E110V
notes: also called VH6Vκ1
B4: #44 VH0VK0 chimeric human IgG1 (antibody, V domains shown)
VH: QSVEESGGRLVTPGTPLTLTCTVSGIDLSSYAMAWVRQAPGKGLEWIGCIDRRGGTFYASWVKGRFTISKTSTTVDLKMTSLTTEDTATYFCARDSGAFDPWGPGTLVTVSS
VL: QIVMTQTPSSVSAAVGGTVTIKCQASQSVYDNYLAWYQQKPGQPPKLLIHAASNLASRVPSRFKGSGSGTQFTLTISDVQCDDAATYYCLGEFSCTTTDCNVFGGGTEVVVK
notes: rabbit VH and VK on human IgG1; also called VH0Vκ0; Clone #44 hIgG1
B5: Clone 1 (#66) rabbit monoclonal IgG (antibody, V domains shown)
VH: QSVEESGGRLVTPGTPLTLTCTVSGIDLSSNAMIWVRQAPGKGLEYIGNIGTHGTTYYASWAKGRFTISKTSTTVDLKMTSPTTEDTATYFCSRGDIWGPGTLVTVSL
VL: AQVLTQTESPVSAPLRGTVTINCQASQSVDDNNNLAWYQQKPGQPPKLLIYEASTLASGVSSRFKGSGSGTQFTLTISDVQCDDAATYYCLGEFSCSSADCVVFGGGTEVVVKG
notes: rabbit IgG; also called clone #66; B9
B6: Clone 2 (#44) rabbit monoclonal IgG (antibody, V domains shown)
VH: B4 VH
VL: QIVMTQTPSSVSAAVGGTVTIKCQASQSVYDNYLAWYQQKPGQPPKLLIHAASNLASRVPSRFKGSGSGTQFTLTISDVQCDDAATYYCLGEFSCTTTDCNVFGGGTEVVVKG
notes: rabbit IgG; also called clone #44; D6

Legend:
[1] = target: T1, full length recombinant human 2N4R tau (human, UniProt P10636 1-758); assay: SPR MCK, IgG on Protein A, tau in flow at 100 µL/min; on the border of mass transport limitation
T1 construct: bought from rPeptide; pHrodo Red maleimide-labelled where it stands in uptake assays; also called tau1-441; full length tau

[2] = target: T1, full length recombinant human 2N4R tau; assay: SPR MCK, IgG on Protein A, tau in flow at 100 µL/min
Bovine serum albumin [3] = target: T2, Bovine serum albumin (bovine, UniProt P02769 25-607); assay: ELISA on 1% BSA, HEK supernatant, anti-human IgG-HRP, n=1
T2 construct: also called BSA

[4] = target: T1, full length recombinant human 2N4R tau; assay: SPR SCK, IgG on Protein A, tau in flow
[5] = target: aggregated (oligomeric) P301S 2N4R tau, pHrodo-labelled (human, UniProt P10636 1-758, pHrodo Red maleimide label); assay: cell-based or functional assay
[6] = target: monomeric P301S 2N4R tau, pHrodo-labelled (human, UniProt P10636 1-758, pHrodo Red maleimide label); assay: cell-based or functional assay
Bovine serum albumin [7] = target: T2, Bovine serum albumin; assay: ELISA on 1% BSA, HEK supernatant, anti-human IgG-HRP, n=1; remark: listed apart in the source
Outline: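 Wells coated with antigen, blocked 1 h RT in 5% milk/TBS; HEK293 transient-transfection supernatants applied at 1:100 in 1% BSA/TBS for 1 h RT. Bound hIgG1 detected with anti-human IgG-HRP (1:2000), TMB 15 min, acid stop, OD450; single replicate.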

[8] = target: T1, full length recombinant human 2N4R tau; assay: ELISA on 2N4R tau (100 ng/well), HEK supernatant, anti-human IgG-HRP, n=1
Procedure: FIG. 7. A panel of humanised anti-tau IgG bind to full length recombinant 2N4R tau in an ELISA format. Supernatants from HEK cells transiently transfected with each IgG clone were tested at 1:100 for binding to full length recombinant 2N4R tau (solid bars). […] Binding of anti-tau hIgG1 was detected using an HRP-conjugated anti-human secondary antibody and data are shown from a representative experiment (n=1 replicate).
(§1) Antigen was removed from wells and the plates were then blocked for 1 hour at RT with 5% dried milk in 1×TBS. Blocking solution was removed, HEK293 cell supernatant (1:100 in 1% BSA/1×TBS) was added to relevant wells, and plates were incubated for 1 hour at RT with gentle shaking. Plates were then washed four times with TBS/0.1% Tween (TBST). Goat anti-human IgG-HRP antibody (Thermo Fisher Scientific, Waltham, MA, USA), diluted 1:2000 in 5% milk/TBS, was added to each well and plates were incubated for 1 hour at RT with gentle shaking before being washed four times with TBST. 3,3′,5,5′-tetramethylbenzidine (TMB) ELISA solution was added to each well and plates were incubated for 15 mins at RT. An equal volume of 1 M sulfuric acid was added to each well and OD was measured at 450 nm.

[9] = target: T1, full length recombinant human 2N4R tau; assay: SPR MCK, IgG on Protein A, tau in flow
Procedure: Anti-tau IgGs bind to full length 2N4R tau (SEQ ID NO: 2) with high affinity. […] It is predicted that the binding affinity of these antibodies would be equivalent to any tau species containing the epitope corresponding to amino acids 369-381 of 2N4R tau (SEQ ID NO: 1), if this sequence is accessible.
19.2 Assessment of antibody binding to tau: Binding of anti-tau hIgG1 to full length recombinant 2N4R tau (Rpeptide; SEQ ID NO: 2) was assessed using the Biacore T200 (GE Healthcare, Chicago, IL, USA) running Biacore T200 Evaluation Software V2.0.1. hIgG1 were immobilised on a Protein A capture sensor chip in running buffer (HBS-EP+ buffer containing 1 mg/mL BSA) at 25° C., captured to ˜50 RU at 10 μL/min. For multi-cycle kinetics experiments (clone #66), recombinant 2N4R tau was flowed at concentrations ranging from 0.39 nM to 50 nM in running buffer at 40 μL/min, with an association time of 150 s and a dissociation time of 250 s. Optimised conditions for multiple-cycle kinetics experiments were applied to clone #44: recombinant 2N4R tau was flowed at concentrations ranging from 0.39 nM to 12.5 nM (2-fold dilutions) with an association time of 60 s and a dissociation time of 200 s (cropped to 65 s to improve analysis fit). Curves were compared to a reference cell that was mock immobilized (no antibody present).

[10] = target: T1, full length recombinant human 2N4R tau; assay: SPR MCK, IgG on Protein A, tau in flow; remark: listed apart in the source
Procedure: Slight variations in RMAX are considered likely to be due to differences in ligand capture and not reflective of significant variation in antibody binding characteristics.
22.2 Assessment of antibody binding to tau (Biacore MCK analysis): Binding of anti-tau hIgG1 to full length recombinant 2N4R tau (Rpeptide; SEQ ID NO: 2) was assessed using the Biacore T200 (GE Healthcare, Chicago, IL, USA) running Biacore T200 Evaluation Software V2.0.1. hIgG1 were immobilised on a Protein A capture sensor chip in running buffer (HBS-EP+ buffer containing 1 mg/mL BSA) at 25° C., captured to ˜50 RU at […]. For multi-cycle kinetics experiments, recombinant 2N4R tau was flowed at concentrations ranging from 0.39 nM to 12.5 nM in running buffer at 40 μL/min, with an association time of 60 s and a dissociation time of 200 s. Curves were compared to a reference cell that was mock immobilized (no antibody present).

[11] = target: T1, full length recombinant human 2N4R tau; assay: SPR SCK, IgG on Protein A, tau in flow; remark: listed apart in the source
Outline: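 Antibodies were captured to ~50 RU on a Protein A chip in HBS-EP+ with 1 mg/mL BSA at 25 °C. Tau was injected by single-cycle kinetics at 1.25–10 nM (2-fold), with 60 s association and 200 s dissociation. Signals were referenced to a mock-immobilized cell.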

[12] = target: T1, full length recombinant human 2N4R tau; assay: ELISA, tau coated on the plate
Procedure: as §1, with “ELISA plates were coated with antigen (non-conjugated antigen peptide (Antigen peptide ([C]-[…]-amide (SEQ ID NO: 13)) or full length 2N4R tau (SEQ ID NO: 2), 100 ng/well; or 1% BSA in 1×TBS) in 1× carbonate-bicarbonate buffer for 1 hour at 37° C. Antigen” for “Antigen”, “HEK293F” for “HEK293”, “(10 μg/mL, to 0.0001 μg/mL” for “(1:100”, “Anti-rabbit” for “Goat anti-human”, “(Sigma, St Louis, MO,” for “(Thermo Fisher Scientific, Waltham, MA,”, “1:5000” for “1:2000”

T1 sequence (P10636 other isoform, or with tags, fused parts or gaps limits assumed): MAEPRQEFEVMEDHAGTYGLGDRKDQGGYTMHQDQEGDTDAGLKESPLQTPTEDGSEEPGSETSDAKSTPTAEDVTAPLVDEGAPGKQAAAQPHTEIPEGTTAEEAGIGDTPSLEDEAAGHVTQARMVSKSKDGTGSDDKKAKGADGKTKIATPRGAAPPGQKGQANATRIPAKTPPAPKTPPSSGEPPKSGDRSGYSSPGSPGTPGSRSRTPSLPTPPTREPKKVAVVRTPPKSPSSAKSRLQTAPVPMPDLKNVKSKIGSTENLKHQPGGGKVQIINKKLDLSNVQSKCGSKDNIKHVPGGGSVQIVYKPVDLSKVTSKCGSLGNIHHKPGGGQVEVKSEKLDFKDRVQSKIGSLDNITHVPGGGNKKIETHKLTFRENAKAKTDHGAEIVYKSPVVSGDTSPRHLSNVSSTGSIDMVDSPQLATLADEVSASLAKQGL
T2 sequence (P02769 25-607 limits assumed): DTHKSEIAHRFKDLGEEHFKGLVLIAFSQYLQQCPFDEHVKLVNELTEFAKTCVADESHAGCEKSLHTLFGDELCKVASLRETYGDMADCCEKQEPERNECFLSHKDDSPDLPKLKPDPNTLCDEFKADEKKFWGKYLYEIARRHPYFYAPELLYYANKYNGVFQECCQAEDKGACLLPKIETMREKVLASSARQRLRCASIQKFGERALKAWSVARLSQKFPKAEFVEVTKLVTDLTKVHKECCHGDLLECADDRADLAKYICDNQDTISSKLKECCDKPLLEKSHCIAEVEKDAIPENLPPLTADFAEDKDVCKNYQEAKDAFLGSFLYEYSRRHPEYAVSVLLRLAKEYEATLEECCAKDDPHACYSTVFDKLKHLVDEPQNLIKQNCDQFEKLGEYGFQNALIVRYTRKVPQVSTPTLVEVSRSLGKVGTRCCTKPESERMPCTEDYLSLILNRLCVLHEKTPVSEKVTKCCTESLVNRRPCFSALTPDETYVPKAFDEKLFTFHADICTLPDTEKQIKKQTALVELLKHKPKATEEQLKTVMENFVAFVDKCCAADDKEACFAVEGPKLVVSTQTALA
Chain of monomeric P301S 2N4R tau, pHrodo-labelled (P10636 other isoform, or with tags, fused parts or gaps P301S P301S): as the sequence (P10636 other isoform, or with tags, fused parts or gaps limits assumed) above, with P301S counted along it
Chain of aggregated (oligomeric) P301S 2N4R tau, pHrodo-labelled (P10636 other isoform, or with tags, fused parts or gaps P301S P301S): as the sequence (P10636 other isoform, or with tags, fused parts or gaps limits assumed) above, with P301S counted along it

Binder	Kd [1] [nM]	Fold improvement (KD, to pVH/pVL) [2]	koff [2] [s⁻¹]	kon [2] [M⁻¹ s⁻¹]	binding result (Bovine serum albumin [3])	Fold change (KD, to pVH/pVL) [4]	Kd [4] [nM]	koff [4] [s⁻¹]	kon [4] [M⁻¹ s⁻¹]	inhibition of aggregated tau uptake into human astrocytes [5] [%]	inhibition of aggregated tau uptake into human iPSC-derived neurons [5] [%]	inhibition of monomeric tau uptake into human astrocytes [6] [%]	inhibition of monomeric tau uptake into human iPSC-derived neurons [6] [%]	EC50 [12] [nM]	other results
B1	0.736	10.5	0.00185	2.51e+06	no binding (tested: 30 ng/ml (legend 1:100))	11.1	0.593	0.0017	2.86e+06	32.6	65.5	35.6	81.8		
B2	1.53	5	0.00524	3.43e+06	no binding (tested: 30 ng/ml (legend 1:100))	5.77	1.14	0.00444	3.9e+06	39.1	55	35.1	71		
B3															binding result (Bovine serum albumin [7]): no binding (tested: supernatant 1:100); binding result [8]: no binding (tested: supernatant 1:100)
B4															Kd [9]: 4.68 nM; koff [9]: 0.00968 s⁻¹; kon [9]: 2.07e+06 M⁻¹ s⁻¹; Kd [10]: 3.25 nM; Relative KD (to VH0VK0) [10]: 1; koff [10]: 0.0107 s⁻¹; kon [10]: 3.3e+06 M⁻¹ s⁻¹; Kd [11]: 3.83 nM; Relative KD (to VH0VK0) [11]: 1; koff [11]: 0.0126 s⁻¹; kon [11]: 3.28e+06 M⁻¹ s⁻¹
B5														0.82	
B6														1.05	
